Test results as given in patent US20260055172A1 (CATALYM, published 2026).
Where a chain is given by its changes, count along the chain named. In names and notes the source's numbering stands. Each block holds one binder with its values, some of them ahead of it.

Experiments:
[1] = target: T1, cynomolgus GDF-15 (cynomolgus monkey, UniProt G7PWZ3 193-308, limits assumed); test: KD from PK-PD model fitted to in vivo NHP data (not a direct binding assay); in vivo KD fitted by the NHP PK-PD model, not an in vitro binding assay
T1 construct: also called NHP GDF-15
T1 sequence (looked up): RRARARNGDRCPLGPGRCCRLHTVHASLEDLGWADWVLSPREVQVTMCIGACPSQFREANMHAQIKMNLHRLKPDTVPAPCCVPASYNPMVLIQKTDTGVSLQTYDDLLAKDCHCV

[2] = target: human complement protein C1q (human, UniProt P02745 23-245; P02746 28-253; P02747 29-245); test: ELISA, antibody incubated on coated human GDF-15, then 10 µg/ml human C1q, detection with HRP-conjugated anti-C1q antibody
Method: Interaction of C1q protein and therapeutic antibody was determined in an ELISA-based approach with 10 μg/ml human C1q protein using a HRP-conjugated anti-C1q antibody for detection. Here, CTL-001 and the different isotype variants were incubated to prior coated human GDF-15 protein before C1q binding was obtained. Experiment was performed in triplicated and mean of absorption (A450 nm) was plotted against the antibody concentration.

[3] = target: T2, rat GDF-15 (rat, UniProt Q9Z0J6 189-303); test: SPR, Biacore T3000; CTL-002 on immobilized anti-human IgG Fc antibody, GDF-15 injected
T2 sequence (looked up): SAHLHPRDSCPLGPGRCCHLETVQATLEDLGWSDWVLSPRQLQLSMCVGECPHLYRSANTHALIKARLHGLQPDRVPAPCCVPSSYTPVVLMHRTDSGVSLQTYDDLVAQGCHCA
Method: (§1) In addition, the affinity to cynomolgus rat and mouse GDF-15 was measured (see Table 2).
(§2) All experiments were performed in 10 mM HEPES buffer, pH 7.4, 150 mM NaCl, 3.4 mM EDTA and 0.05% Tween. anti-human IgG Fc specific antibody (Jackson, Order #109-005-008, Lot #111148) was covalently immobilized by EDC/NHS chemistry on Biacore CM5 Chips (GE Healthcare, Order #61144275, Lot #10236645). For kinetic characterization of the antigen-antibody interaction pulses of increasing GDF-15 concentrations (e.g. 156.3 pM, 312 pM, 625 pM, 1,250 pM) were injected at a flow rate of 30 μl/min. After each measurement cycle (8 min of association followed by 30 min of dissociation) the antibody-antigen complex was resolved by regeneration of the surface with 10 mM glycine-HCl at pH 2.0. […] For global fit analysis only, these antigen concentrations were taken into account, which allowed the analysis following the Langmuir 1:1 binding model or 1:1 binding with drifting baseline.

[4] = target: T3, mouse GDF-15 (mouse, UniProt Q9Z0J7 189-303); test: as above
T3 construct: also called murine GDF-15
T3 sequence (looked up): T2 sequence (looked up) with L4A, L63Q, R75K, Q110R
Method: as §1, §2

[5] = target: T1, cynomolgus GDF-15; test: as above
Method: as §1, §2

[6] = target: T4, recombinant human GDF-15 (human, UniProt Q99988 195-308); test: as above
T4 construct: mature; also called hGDF-15; Growth Differentiation Factor-15
T4 sequence (looked up): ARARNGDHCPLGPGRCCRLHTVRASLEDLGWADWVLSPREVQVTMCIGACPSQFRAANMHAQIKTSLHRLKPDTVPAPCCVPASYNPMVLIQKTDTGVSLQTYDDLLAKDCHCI
Method: as §1, §2

[7] = target: T4, recombinant human GDF-15; test: SPR (Biacore T3000): CTL-002 on the flow cell (per paragraph 142 an anti-human IgG Fc antibody is immobilized on the CM5 chip), human GDF-15 injected at 247, 370, 556, 833 and 1250 pM, global fit; one representative measurement of three
Method: as §2

[8] = target: T4, recombinant human GDF-15; test: cell-based or functional assay

human complement protein C1q, sequence (P02745 23-245 limits assumed, chain 1 of 3): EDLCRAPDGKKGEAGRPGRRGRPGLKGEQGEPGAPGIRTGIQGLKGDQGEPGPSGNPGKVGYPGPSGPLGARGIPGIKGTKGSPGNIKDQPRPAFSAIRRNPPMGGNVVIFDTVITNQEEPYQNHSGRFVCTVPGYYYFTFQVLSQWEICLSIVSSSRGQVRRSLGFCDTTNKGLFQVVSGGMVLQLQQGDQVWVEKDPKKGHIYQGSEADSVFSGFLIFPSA
human complement protein C1q, sequence (P02746 28-253 limits assumed, chain 2 of 3): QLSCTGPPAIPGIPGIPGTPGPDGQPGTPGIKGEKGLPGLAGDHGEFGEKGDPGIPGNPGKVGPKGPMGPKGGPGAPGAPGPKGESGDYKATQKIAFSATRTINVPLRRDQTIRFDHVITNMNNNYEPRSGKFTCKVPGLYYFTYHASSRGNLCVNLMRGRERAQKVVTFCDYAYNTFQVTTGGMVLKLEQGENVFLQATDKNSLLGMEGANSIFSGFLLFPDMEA
human complement protein C1q, sequence (P02747 29-245 limits assumed, chain 3 of 3): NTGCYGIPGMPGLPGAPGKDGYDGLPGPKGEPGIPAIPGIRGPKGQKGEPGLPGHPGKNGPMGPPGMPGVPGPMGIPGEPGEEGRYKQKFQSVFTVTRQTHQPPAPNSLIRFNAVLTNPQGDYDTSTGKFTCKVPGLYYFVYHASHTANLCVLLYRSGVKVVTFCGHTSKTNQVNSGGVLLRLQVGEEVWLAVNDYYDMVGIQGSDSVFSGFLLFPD

Kd [1]: 0.019 nM
Kd [3]: 0.449 nM
Kd [4]: 9.76 nM
Kd [5]: 0.108 nM
Kd [6]: 0.0383 nM
Kd [7]: 0.0338 nM
EC50, rescue of CD8+ T-cell adhesion (flow-adhesion assay) [8]: ~0.7 µg/mL
EC50, reversal of GDF-15 mediated inhibition of T cell adhesion (in vitro flow-adhesion assay, 50 ng/ml GDF-15) [8]: 0.69 to 0.725 µg/mL
EC50 of CTL-002 in the flow-adhesion assay with T cells [8]: 0.707 µg/mL
B1: CTL-002 (antibody, human IgG4 S228P, kappa)
heavy: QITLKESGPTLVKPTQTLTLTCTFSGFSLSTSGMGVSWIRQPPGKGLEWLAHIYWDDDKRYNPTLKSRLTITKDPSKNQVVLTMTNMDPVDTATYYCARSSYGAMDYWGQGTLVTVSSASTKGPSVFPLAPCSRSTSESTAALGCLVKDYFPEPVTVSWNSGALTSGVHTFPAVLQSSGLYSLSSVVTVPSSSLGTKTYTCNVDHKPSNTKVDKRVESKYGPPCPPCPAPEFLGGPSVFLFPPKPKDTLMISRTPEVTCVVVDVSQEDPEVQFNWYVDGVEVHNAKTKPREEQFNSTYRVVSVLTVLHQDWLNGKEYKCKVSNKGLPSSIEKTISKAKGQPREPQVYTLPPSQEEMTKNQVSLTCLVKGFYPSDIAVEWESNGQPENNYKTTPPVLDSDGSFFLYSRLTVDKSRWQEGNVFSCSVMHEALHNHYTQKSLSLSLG
light: DIVLTQSPSFLSASVGDRVTITCKASQNVGTNVAWFQQKPGKSPKALIYSASYRYSGVPDRFTGSGSGTEFTLTISSLQPEDFAAYFCQQYNNFPYTFGGGTKLEIKRTVAAPSVFIFPPSDEQLKSGTASVVCLLNNFYPREAKVQWKVDNALQSGNSQESVTEQDSKDSTYSLSSTLTLSKADYEKHKVYACEVTHQGLSSPVTKSFNRGEC
notes: Humanized, hinge-stabilized IgG4 (IgG4 S228P) derived from mouse antibody B1-23; also called CTL-001 IgG4*; CTL-001 IgG4
binding result [2]: no binding (tested: about 25 µg/ml (leftmost visible marker))

B2: CTL-001 (antibody, human IgG1, kappa)
heavy: not shown
light: B1 light
notes: Humanized IgG1 with a kappa light chain; also called H1L5; B1-23-H1L5
binding result [2]: no binding (tested: about 25 µg/ml (leftmost visible marker))
